Reference: patent publication US20260250318A1, “COMPOSITIONS AND METHODS FOR CROSSING THE BLOOD BRAIN BARRIER” (VOYAGER THERAPEUTICS, INC., priority 2022, published 2026)
Where “and” joins values, the source holds several entries; their conditions need not be identical. Equal values may be shown once.

T1: AAVR (universal AAV entry factor) expressed on HEK 293T cells (UniProt Q8IZA0 1-1049)
T1 construct: whole, on cells; also called AAVR positive control
T1 sequence: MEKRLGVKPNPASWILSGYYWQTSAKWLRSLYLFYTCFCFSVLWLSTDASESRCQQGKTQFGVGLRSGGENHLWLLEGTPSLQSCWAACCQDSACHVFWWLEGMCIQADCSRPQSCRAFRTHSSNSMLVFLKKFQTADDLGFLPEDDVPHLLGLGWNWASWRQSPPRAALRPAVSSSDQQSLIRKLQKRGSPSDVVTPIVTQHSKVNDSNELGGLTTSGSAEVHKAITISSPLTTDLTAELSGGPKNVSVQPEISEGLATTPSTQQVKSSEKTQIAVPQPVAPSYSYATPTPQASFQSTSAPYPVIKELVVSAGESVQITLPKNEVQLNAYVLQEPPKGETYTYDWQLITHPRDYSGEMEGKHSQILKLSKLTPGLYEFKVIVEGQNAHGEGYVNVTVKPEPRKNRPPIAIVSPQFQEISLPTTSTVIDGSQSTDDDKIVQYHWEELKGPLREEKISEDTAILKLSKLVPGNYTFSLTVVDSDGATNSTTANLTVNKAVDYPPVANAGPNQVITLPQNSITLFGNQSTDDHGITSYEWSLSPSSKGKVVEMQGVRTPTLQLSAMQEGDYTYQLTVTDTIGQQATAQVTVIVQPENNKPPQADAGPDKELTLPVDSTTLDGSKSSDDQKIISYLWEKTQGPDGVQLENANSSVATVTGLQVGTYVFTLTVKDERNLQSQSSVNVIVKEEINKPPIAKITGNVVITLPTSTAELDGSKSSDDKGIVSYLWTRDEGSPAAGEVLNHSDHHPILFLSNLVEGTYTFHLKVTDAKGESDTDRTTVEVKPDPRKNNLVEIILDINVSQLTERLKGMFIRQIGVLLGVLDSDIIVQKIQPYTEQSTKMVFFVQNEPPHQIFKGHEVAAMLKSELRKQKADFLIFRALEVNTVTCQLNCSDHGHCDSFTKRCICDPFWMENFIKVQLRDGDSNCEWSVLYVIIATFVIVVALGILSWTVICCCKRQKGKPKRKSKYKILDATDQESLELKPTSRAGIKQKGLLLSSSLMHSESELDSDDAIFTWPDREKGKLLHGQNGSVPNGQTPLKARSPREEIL

T2: human ALPL expressed on cells (alkaline phosphatase tissue-nonspecific isozyme, NM_000478.4) (human, UniProt P05186 18-501)
T2 sequence: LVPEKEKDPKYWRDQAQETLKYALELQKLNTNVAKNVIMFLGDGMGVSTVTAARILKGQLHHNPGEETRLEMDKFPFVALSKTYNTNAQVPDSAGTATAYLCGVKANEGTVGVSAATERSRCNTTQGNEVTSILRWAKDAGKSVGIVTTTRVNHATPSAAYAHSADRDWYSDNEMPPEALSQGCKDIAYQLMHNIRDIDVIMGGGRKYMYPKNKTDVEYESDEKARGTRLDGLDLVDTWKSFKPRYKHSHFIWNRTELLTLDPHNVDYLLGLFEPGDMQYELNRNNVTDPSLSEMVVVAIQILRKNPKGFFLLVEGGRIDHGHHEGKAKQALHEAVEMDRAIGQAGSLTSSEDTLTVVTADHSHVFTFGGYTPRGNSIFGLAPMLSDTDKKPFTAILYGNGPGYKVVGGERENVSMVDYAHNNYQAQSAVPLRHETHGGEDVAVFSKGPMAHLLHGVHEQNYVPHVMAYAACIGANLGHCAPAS

T3: His-tagged ALPL (recombinant, soluble; SPR, BLI and ELISA of Examples 8 and 13) (UniProt P05186 18-502)
T3 sequence: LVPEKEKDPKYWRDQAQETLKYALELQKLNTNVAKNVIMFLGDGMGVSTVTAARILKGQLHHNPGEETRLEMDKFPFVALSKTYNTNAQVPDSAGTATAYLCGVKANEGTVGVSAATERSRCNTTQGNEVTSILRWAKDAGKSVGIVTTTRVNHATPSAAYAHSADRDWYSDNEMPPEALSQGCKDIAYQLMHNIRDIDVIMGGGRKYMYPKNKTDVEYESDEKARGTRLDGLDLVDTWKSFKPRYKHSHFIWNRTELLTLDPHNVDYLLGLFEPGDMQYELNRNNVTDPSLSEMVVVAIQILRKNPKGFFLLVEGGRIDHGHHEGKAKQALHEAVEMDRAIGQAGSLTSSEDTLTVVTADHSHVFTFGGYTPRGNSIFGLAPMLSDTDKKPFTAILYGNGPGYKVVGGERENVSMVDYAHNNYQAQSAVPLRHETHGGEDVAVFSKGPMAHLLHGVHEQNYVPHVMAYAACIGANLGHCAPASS

T4: ALPL with a deletion of the ER localization signal (ALPL transcript variant 2, NM_001127501) (human, UniProt P05186 56-501)
T4 sequence: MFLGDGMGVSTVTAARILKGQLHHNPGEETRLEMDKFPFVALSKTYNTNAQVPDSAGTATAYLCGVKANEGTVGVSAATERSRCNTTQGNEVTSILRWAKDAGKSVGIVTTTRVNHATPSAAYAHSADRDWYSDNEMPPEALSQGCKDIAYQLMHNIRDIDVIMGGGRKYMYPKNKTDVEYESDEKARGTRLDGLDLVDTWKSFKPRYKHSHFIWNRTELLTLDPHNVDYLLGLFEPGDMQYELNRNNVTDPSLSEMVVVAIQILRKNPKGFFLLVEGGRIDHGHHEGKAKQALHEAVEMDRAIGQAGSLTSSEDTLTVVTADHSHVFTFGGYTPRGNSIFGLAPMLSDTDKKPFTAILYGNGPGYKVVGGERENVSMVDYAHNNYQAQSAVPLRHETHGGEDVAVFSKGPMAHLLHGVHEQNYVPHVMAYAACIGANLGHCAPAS

T5: His-tagged ALPL (Homo sapiens, UniProt P05186)
T5 sequence (P05186 18-501): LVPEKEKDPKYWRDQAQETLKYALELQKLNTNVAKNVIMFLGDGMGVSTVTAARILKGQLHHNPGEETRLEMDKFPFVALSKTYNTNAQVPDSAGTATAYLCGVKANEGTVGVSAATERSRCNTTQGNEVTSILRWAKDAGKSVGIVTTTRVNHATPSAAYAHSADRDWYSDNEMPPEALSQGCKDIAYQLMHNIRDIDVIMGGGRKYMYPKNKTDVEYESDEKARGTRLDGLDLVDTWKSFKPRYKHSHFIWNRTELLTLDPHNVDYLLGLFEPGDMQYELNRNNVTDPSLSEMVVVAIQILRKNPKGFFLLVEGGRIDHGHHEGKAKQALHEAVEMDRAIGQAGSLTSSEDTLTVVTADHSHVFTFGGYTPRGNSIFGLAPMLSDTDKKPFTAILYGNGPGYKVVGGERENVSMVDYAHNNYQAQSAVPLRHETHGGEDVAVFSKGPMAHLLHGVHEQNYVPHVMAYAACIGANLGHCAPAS


Columns and labels:
[1] = biological target: T1, AAVR (universal AAV entry factor) …; assay: binding/internalization: AAV incubated 2 or 3 h with AAVR transfected HEK 293T cells, washed, viral genomes quantified
[2] = biological target: T2, human ALPL expressed on cells (alkaline …); assay: cell-based or functional assay
[3] = biological target: T3, His-tagged ALPL (recombinant, soluble; …)
[4] = biological target: T4, ALPL with a deletion of the ER …; assay: cell-based or functional assay
[5] = biological target: T2, human ALPL expressed on cells (alkaline …); assay: cell-based or functional assay; remark: listed apart in the source
[6] = biological target: T5, His-tagged ALPL; assay: SPR pH dependence of capsid-ALPL interaction; format: binding; conditions: association at pH 7.4, dissociation at pH 7.4 or 5.5
Source text: The TTM-002 capsid variant was immobilized on the CM5 sensor chip. His-tagged ALPL and buffer was then passed over the AAV9 control or TTM-002 capsid variant to monitor the rate of association at pH 7.4 and dissociation, respectively, at a pH of 7.4 (FIG. 3A) or a pH of 5.5 (FIG. 3B).

| Molecule | fold change in viral gene expression (2^-ΔΔCT) relative to pCMV6 transfected cells [1] [fold] | luciferase activity, fold change relative to pCMV6 transfected HEK 293T cells (ALPL transfected cells) [2] [fold] | Kd [3] | kon [3] | fold change in luciferase activity relative to the pCMV6 control cells (cells transfected with ALPL comprising a deletion of the ER localization signal) [4] [fold] | fold change in luciferase activity relative to the pCMV6 control cells (cells transfected with ALPL) [5] [fold] | rate of dissociation from ALPL, pH 7.4 vs 5.5 [6] |
| --- | --- | --- | --- | --- | --- | --- | --- |
| TTM-002 capsid variant (AAV particle comprising the TTM-002 AAV9 capsid variant) (other) chain 1: MAADGYLPDWLEDNLSEGIREWWALKPGAPQPKANQQHQDNARGLVLPGYKYLGPGNGLDKGEPVNAADAAALEHDKAYDQQLKAGDNPYLKYNHADAEFQERLKEDTSFGGNLGRAVFQAKKRLLEPLGLVEEAAKTAPGKKRPVEQSPQEPDSSAGIGKSGAQPAKKRLNFGQTGDTESVPDPQPIGEPPAAPSGVGSLTMASGGGAPVADNNEGADGVGSSSGNWHCDSQWLGDRVITTSTRTWALPTYNNHLYKQISNSTSGGSSNDNAYFGYSTPWGYFDFNRFHCHFSPRDWQRLINNNWGFRPKRLNFKLFNIQVKEVTDNNGVKTIANNLTSTVQVFTDSDYQLPYVLGSAHEGCLPPFPADVFMIPQYGYLTLNDGSQAVGRSSFYCLEYFPSQMLRTGNNFQFSYEFENVPFHSSYAHSQSLDRLMNPLIDQYLYYLSKTINGHDSPHKSGQNQQTLKFSVAGPSNMAVQGRNYIPGPSYRQQRVSTTVTQNNNSEFAWPGASSWALNGRNSLMNPGPAMASHKEGEDRFFPLSGSLIFGKQGTGRDNVDADKVMITNEEEIKTTNPVATESYGQVATNHQSAQAQAQTGWVQNQGILPGMVWQDRDVYLQGPIWAKIPHTDGNFHPSPLMGGFGMKHPPPQILIKNTPVPADPPTAFNKDKLNSFITQYSTGQVSVEIEWELQKENSKRWNPEIQYTSNYYKSNNVEFAVNTEGVYSEPRPIGTRYLTRNL chain 2: TAPGKKRPVEQSPQEPDSSAGIGKSGAQPAKKRLNFGQTGDTESVPDPQPIGEPPAAPSGVGSLTMASGGGAPVADNNEGADGVGSSSGNWHCDSQWLGDRVITTSTRTWALPTYNNHLYKQISNSTSGGSSNDNAYFGYSTPWGYFDFNRFHCHFSPRDWQRLINNNWGFRPKRLNFKLFNIQVKEVTDNNGVKTIANNLTSTVQVFTDSDYQLPYVLGSAHEGCLPPFPADVFMIPQYGYLTLNDGSQAVGRSSFYCLEYFPSQMLRTGNNFQFSYEFENVPFHSSYAHSQSLDRLMNPLIDQYLYYLSKTINGHDSPHKSGQNQQTLKFSVAGPSNMAVQGRNYIPGPSYRQQRVSTTVTQNNNSEFAWPGASSWALNGRNSLMNPGPAMASHKEGEDRFFPLSGSLIFGKQGTGRDNVDADKVMITNEEEIKTTNPVATESYGQVATNHQSAQAQAQTGWVQNQGILPGMVWQDRDVYLQGPIWAKIPHTDGNFHPSPLMGGFGMKHPPPQILIKNTPVPADPPTAFNKDKLNSFITQYSTGQVSVEIEWELQKENSKRWNPEIQYTSNYYKSNNVEFAVNTEGVYSEPRPIGTRYLTRNL chain 3: MASGGGAPVADNNEGADGVGSSSGNWHCDSQWLGDRVITTSTRTWALPTYNNHLYKQISNSTSGGSSNDNAYFGYSTPWGYFDFNRFHCHFSPRDWQRLINNNWGFRPKRLNFKLFNIQVKEVTDNNGVKTIANNLTSTVQVFTDSDYQLPYVLGSAHEGCLPPFPADVFMIPQYGYLTLNDGSQAVGRSSFYCLEYFPSQMLRTGNNFQFSYEFENVPFHSSYAHSQSLDRLMNPLIDQYLYYLSKTINGHDSPHKSGQNQQTLKFSVAGPSNMAVQGRNYIPGPSYRQQRVSTTVTQNNNSEFAWPGASSWALNGRNSLMNPGPAMASHKEGEDRFFPLSGSLIFGKQGTGRDNVDADKVMITNEEEIKTTNPVATESYGQVATNHQSAQAQAQTGWVQNQGILPGMVWQDRDVYLQGPIWAKIPHTDGNFHPSPLMGGFGMKHPPPQILIKNTPVPADPPTAFNKDKLNSFITQYSTGQVSVEIEWELQKENSKRWNPEIQYTSNYYKSNNVEFAVNTEGVYSEPRPIGTRYLTRNL | 3.2 | 44 | 32 nM and 26.8 nM and 47 nM and 52.3 nM | 39800 M⁻¹ s⁻¹ and 43600 M⁻¹ s⁻¹ and 39400 M⁻¹ s⁻¹ and 98000 M⁻¹ s⁻¹ | 2 | 24 |  |
| TTM-002: AAV9 capsid variant comprising HDSPHK (SEQ ID NO: 2) in loop IV (protein) chain 1: MAADGYLPDWLEDNLSEGIREWWALKPGAPQPKANQQHQDNARGLVLPGYKYLGPGNGLDKGEPVNAADAAALEHDKAYDQQLKAGDNPYLKYNHADAEFQERLKEDTSFGGNLGRAVFQAKKRLLEPLGLVEEAAKTAPGKKRPVEQSPQEPDSSAGIGKSGAQPAKKRLNFGQTGDTESVPDPQPIGEPPAAPSGVGSLTMASGGGAPVADNNEGADGVGSSSGNWHCDSQWLGDRVITTSTRTWALPTYNNHLYKQISNSTSGGSSNDNAYFGYSTPWGYFDFNRFHCHFSPRDWQRLINNNWGFRPKRLNFKLFNIQVKEVTDNNGVKTIANNLTSTVQVFTDSDYQLPYVLGSAHEGCLPPFPADVFMIPQYGYLTLNDGSQAVGRSSFYCLEYFPSQMLRTGNNFQFSYEFENVPFHSSYAHSQSLDRLMNPLIDQYLYYLSKTINGHDSPHKSGQNQQTLKFSVAGPSNMAVQGRNYIPGPSYRQQRVSTTVTQNNNSEFAWPGASSWALNGRNSLMNPGPAMASHKEGEDRFFPLSGSLIFGKQGTGRDNVDADKVMITNEEEIKTTNPVATESYGQVATNHQSAQAQAQTGWVQNQGILPGMVWQDRDVYLQGPIWAKIPHTDGNFHPSPLMGGFGMKHPPPQILIKNTPVPADPPTAFNKDKLNSFITQYSTGQVSVEIEWELQKENSKRWNPEIQYTSNYYKSNNVEFAVNTEGVYSEPRPIGTRYLTRNL chain 2: GHDSPHKSGQNQQT |  |  |  |  |  |  | increased when the pH was decreased from 7.4 to 5.5 |
